According to PMC9974998, “Structural mechanism for inhibition of PP2A-B56α and oncogenicity by CIP2A” (Nature Communications, 2023):
No end group written: not given here. *: point of attachment. Biotin = O=C1N[C@H]2[C@H](CS[C@H]2CCCCC(=O)*)N1

B1: B56α (recombinant, WT) (natural protein)
chain: not shown
notes: PP2A regulatory subunit B56α; pGEX-B56α WT; also called B56α WT; source: E. coli BL21, purified (glutathione agarose, GST removed with AcTEV); not shown: GST, N-terminal, cleaved
B2: B56α K181A/K217A/K227A (recombinant) (natural protein)
chain: not shown
notes: PP2A regulatory subunit B56α with K181A, K217A and K227A; also called B56α triple mutant
B3: B56α Y215Q (natural protein)
chain: not shown
notes: PP2A regulatory subunit B56α with Y215Q; source: purified recombinant
B4: GST-CIP2A(1-330) A24E (domain or fragment)
chain: not shown
notes: CIP2A, human, residues 1-330, A24E; also called A24E mutant; source: E. coli BL21, purified (glutathione agarose); not shown: GST, N-terminal, kept
B5: CIP2A(1-330) as used for XL-MS (domain or fragment)
chain: not shown
notes: CIP2A, human, residues 1-330; also called CIP2A(1-330) fragment; source: E. coli BL21, purified (glutathione agarose), dialysed into PBS pH 8, 2 mM DTT, 10% glycerol
B6: CIP2A peptide (aa18-40) (peptide)
peptide: Biotin-KAVKSEANATQLLRHLEVISGQK
notes: CIP2A, human, head domain residues 18-40; also called CIP2A N-terminal head peptide; CIP2A head peptide; source: synthetic peptide (Fmoc solid phase, HPLC purified, 87% purity)

Assays:
Conditions in all cases: both partners purified
GST-CIP2A(1-560) [1] = target: T1, GST-CIP2A(1-560) (human, UniProt Q8TCG1 1-560); assay: pull-down; GST-CIP2A incubated with the pre-assembled PP2A-B56α holoenzyme (A-B56α-PP2Ac), glutathione beads; Coomassie gel and Western blot; CIP2A also titrated against equal molar amounts of PP2A proteins
T1 construct: CIP2A, human, residues 1-560; pGEX vector, thrombin-cleavable N-terminal GST; also called GST-tagged CIP2A(1-560) WT; GST-fused CIP2A(1-560); source: E. coli BL21, purified (glutathione agarose); not shown: GST, N-terminal, kept

CIP2A(1-560)V5 His = target: T2, CIP2A(1-560)V5 His (human, UniProt Q8TCG1 1-560); assay: pull-down; competition: GST-BubR1(647-720), B56α and CIP2A(1-560)V5, 10 pmol each, glutathione bead pull-down, B56α on BubR1 by Western blot
T2 construct: CIP2A, human, residues 1-560; also called V5-tagged recombinant CIP2A(1-560); source: recombinant

GST-CIP2A(1-560) K8A = target: T3, GST-CIP2A(1-560) K8A (human, UniProt Q8TCG1 1-560, K8A); assay: pull-down; GST pull-down on glutathione agarose; 10 pmol of each protein in 150 µL 50 mM Tris HCl pH 7.5, 150 mM NaCl, 2 mM DTT, 0.2% Igepal, 10% glycerol, 1 h 37 °C; Western blot
T3 construct: CIP2A, human, residues 1-560, K8A; also called CIP2A(1-560) K8A mutant; source: E. coli BL21, purified (glutathione agarose); not shown: GST, N-terminal, kept

[2] = target: T4, CIP2A(1-560) as used for XL-MS (human, UniProt Q8TCG1 1-560); assay: cross-linking; XL-MS: CIP2A and B56α mixed 1:2, RT 60 min, about 0.5 mg/mL; DSS 100 or 500 µM (PBS pH 8.0, 2 mM DTT, 10% glycerol, 30 min 37 °C) or PDH + DMTMM (pH 7, 45 min 37 °C); LC-MS/MS, xQuest
T4 construct: CIP2A, human, residues 1-560; source: E. coli BL21, purified (glutathione agarose), dialysed into PBS pH 8, 2 mM DTT, 10% glycerol

GST-CIP2A(1-560) [3] = target: T1, GST-CIP2A(1-560); assay: pull-down; GST pull-down on glutathione agarose; 10 pmol of each protein in 150 µL 50 mM Tris HCl pH 7.5, 150 mM NaCl, 2 mM DTT, 0.2% Igepal, 10% glycerol, 1 h 37 °C; Western blot
B56α (recombinant, WT) [4] = target: B1; assay: as above
B56α (recombinant, WT) [5] = target: B1; assay: cross-linking; XL-MS: CIP2A and B56α mixed 1:2, RT 60 min, about 0.5 mg/mL; DSS 100 or 500 µM (PBS pH 8.0, 2 mM DTT, 10% glycerol, 30 min 37 °C) or PDH + DMTMM (pH 7, 45 min 37 °C); LC-MS/MS, xQuest
B56α (recombinant, WT) [6] = target: B1; assay: pull-down; competition: B56α pre-incubated with CIP2A peptide (aa.18-40) 30 min 37 °C, then GST-BubR1(647-720) 1 h 37 °C, 10 pmol each, glutathione bead pull-down, Western blot

Binder: B1
- binding result (GST-CIP2A(1-560) [1]): binds
- binding result (CIP2A(1-560)V5 His): binds
- binding result (GST-CIP2A(1-560) K8A): binds
- binding result [2]: binds

Binder: B2
- binding result (GST-CIP2A(1-560) [3]): binds

Binder: B3
- binding result (GST-CIP2A(1-560) [3]): binds

Binder: B4
- binding result (B56α (recombinant, WT) [4]): binds

Binder: B5
- binding result (B56α (recombinant, WT) [5]): binds

Binder: B6
- binding result (B56α (recombinant, WT) [6]): binds
